# From PMC3873459
# Legend:
# [1] = biological target: recombinant HLA-DR1 protein bound to a hemagglutinin (HA) peptide; assay: pull-down
# [2] = biological target: pfiT, tag-less (GST removed with PreScission protease) (Pseudomonas fluorescens); assay: AUC; sedimentation equilibrium, pfiT alone at 9 µM and 18 µM, 20°C, 20,000/25,000/30,000 rpm, HBS; global fit with monomer-dimer model (SEDPHAT); dimer to monomers
# [3] = biological target: pfiT, tag-less (GST removed with PreScission protease) (Pseudomonas fluorescens); assay: AUC; sedimentation velocity, pfiT alone at 3.6 µM, 20°C, 50,000 rpm, 10 mM Hepes pH 7.4, 150 mM NaCl, 2 mM DTT; c(s) and c(M) distributions (SEDFIT)
substance,measurement,setting,value
"pfiT, tag-less (GST removed with PreScission protease) (natural protein)",IC50,[1],47 µM
same,Kd,[2],0.15 µM
same,stoichiometry N,[3],2
